# Source: FireProtDB (doi:10.1021/bi00105a011)
# B1: Lysozyme C, P61626 (parent)
# chain: MKALIVLGLVLLSVTVQGKVFERCELARTLKRLGMDGYRGISLANWMCLAKWESGYNTRATNYNAGDRSTDYGIFQINSRYWCNDGKTPGAVNACHLSCSALLQDNIADAVACAKRVVRDPQGIRAWVAWRNRCQNRDVRQYVQGCGV
# Variants of: B1
# Details: Homo sapiens; pH 3; 25 °C; GdnHCl; CD; glycine-HCl 40 mM; reversible: yes (100%); structure 1LZ1; whole UniProt chain shown
Variant,ddG of mutation (higher = less stable) [kcal/mol],denaturant m value [kcal/mol/M],denaturant midpoint (higher = more stable) [M],unfolding free energy [kcal/mol]
A65P,-1.1,5.5,3.3,10.8
V128P,-2.4,6.69,3.05,12.1
P121G,0,5.55,2.95,9.7
P89G P121G,1.1,5.48,2.64,8.6
D109P,0.8,5.42,2.78,8.9
P89G,1.2,5.43,2.63,8.5
